# Experimental data taken from paper PMC3985704.
# T1: unmodified Dictyostelium Skp1A (Dictyostelium discoideum), P52285
# T1 chain: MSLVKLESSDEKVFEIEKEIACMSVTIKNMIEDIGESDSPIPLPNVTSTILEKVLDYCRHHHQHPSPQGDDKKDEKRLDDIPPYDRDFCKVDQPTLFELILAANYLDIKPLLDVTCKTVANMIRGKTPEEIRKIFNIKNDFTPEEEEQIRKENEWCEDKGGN
# B1: unmodified Dictyostelium Skp1A, P52285 1-162 (natural protein)
# chain: T1 chain
# Biological target: T1, unmodified Dictyostelium Skp1A …
# Assay: SAXS
# Settings: remark: other sources report otherwise
binder,measurement,value
B1,stoichiometry N,2
